Data published in patent publication US12233135B2, “Therapeutic constructs for treating cancer” (PRECISION MOLECULAR INC., priority 2018, dated 2025).

System: B16F10-Red-FLuc mouse melanoma cells
Assay: Syngeneic model of experimental metastasis to the lung using B16F10-Red-FLuc cells
Format: in vivo
Conditions: Example 9
Protocol: B16F10-Red-FLuc mouse melanoma cells (Perkin Elmer, Waltham, MA, USA) were cultured in RPMI 1640 cell culture medium supplemented with 10% FBS, 1% GlutaMAX™, and 1% penicillin-streptomycin, and grown at 37° C. in a humidified cell culture incubator supplied with 5% CO2. The cells were harvested by trypsinization, washed twice in HBSS and counted (using trypan blue exclusion). The final cell density was adjusted with HBSS to 3.5×10e6 cells/mL. 100 μL of cell suspension, consisting of 3.5×10e5 cells, was discharged into the tail vein of mice at the start of the study (Day 0). Imaging was performed on study Day 5, when the presence of lung tumors was confirmed in sufficient animals to commence the study. Imaging was performed as described in Example 6.
9.5% Trehalose buffer and nanoparticles containing PEG-lucia, PEG-mIL12, PEG-TK-mIL12, PEG-mIL2-mIL12 and PEG-TK-mIL2-mIL12 (each 60 μg/vial) were reconstituted in 300 μL of nuclease-free water per vial on the day of dosing to give dosing solutions of 200 μg/mL. Formulated test articles were stored at 4° C. and used on day of reconstitution.
9.5% Trehalose buffer and nanoparticles containing PEG-lucia, PEG-mIL12, PEG-TK-mIL12, PEG-mIL2-mIL12 and PEG-TK-mIL2-mIL12 were administered via intravenous injection (i.v.) on Study Days 5, 8, 11, 14 and 17. Treatments were administered at a dose of 2 mg/kg in a dosing volume of 10 mL/kg on Study Days 5, 11, 14 and 17. Due to declining body weight in all groups apart from the vehicle control at Day 6, the dose was reduced to 1 mg/kg in 5 mL/kg for the dose administered on Study Day 8. Dosing then resumed at 2 mg/kg in 10 mL/kg on Study Day 11 as per protocol.
The anti-tumor effect of nanoparticles containing PEG-mIL12 and expressing mIL-12 was compared to recombinant mIL-12 protein administered subcutaneously. The experimental design was as Example 8 but nanoparticles were prepared at N/P=4 and N/P=6 ratios. Nanoparticles were dosed as before for N/P=6, however, for the N/P=4 formulation the dose was maintained at 2 mg/kg in 10 mL/kg at day 8. […]

B1: recombinant mIL-12: recombinant mIL-12 protein (PeproTech) administered subcutaneously (protein, UniProt P43431 23-215; P43432 23-335, looked up)
Interleukin-12 subunit alpha: RVIPVSGPARCLSQSRNLLKTTDDMVKTAREKLKHYSCTAEDIDHEDITRDQTSTLKTCLPLELHKNESCLATRETSSTTRGSCLPPQKTSLMMTLCLGSIYEDLKMYQTEFQAINAALQNHNHQQIILDKGMLVAIDELMQSLNHNGETLRQKPPVGEADPYRVKMKLCILLHAFSTRVVTINRVMGYLSSA
Interleukin-12 subunit beta: MWELEKDVYVVEVDWTPDAPGETVNLTCDTPEEDDITWTSDQRHGVIGSGKTLTITVKEFLDAGQYTCHKGGETLSHSHLLLHKKENGIWSTEILKNFKNKTFLKCEAPNYSGRFTCSWLVQRNMDLKFNIKSSSSSPDSRAVTCGMASLSAEKVTLDQRDYEKYSVSCQEDVTCPTAEETLPIELALEARQQNKYENYSTSFFIRDIIKPDPPKNLQMKPLKNSQVEVSWEYPDSWSTPHSYFSLKFFVRIQRKKEKMKETEEGCNQKGAFLVEKTSTEVQCKGGNVCVQAQDRYYNSSCSKWACVPCRVRS
- Median survival compared with Trehalose control (Log-rank test, p≤0.01 for PEG-mIL12 formulations, p≤0.05 for recombinant mIL-12): significantly longer
- tumor growth by luminescence compared with 9.5% Trehalose control (Study Day 19): significant (p≤0.05) inhibition of tumor growth
- Median survival time (nanoparticles 2 mg/kg i.v., recombinant mIL-12 s.c. 4 μg/kg then 12 μg/kg, Trehalose control 22.0 days): 25.0 days
